From publication doi:10.1101/2021.09.10.459738

Target: heat-denatured ovalbumin (UniProt P01012)
Assay: ELISA

Chain of UniProt P01012 (P01012 whole entry): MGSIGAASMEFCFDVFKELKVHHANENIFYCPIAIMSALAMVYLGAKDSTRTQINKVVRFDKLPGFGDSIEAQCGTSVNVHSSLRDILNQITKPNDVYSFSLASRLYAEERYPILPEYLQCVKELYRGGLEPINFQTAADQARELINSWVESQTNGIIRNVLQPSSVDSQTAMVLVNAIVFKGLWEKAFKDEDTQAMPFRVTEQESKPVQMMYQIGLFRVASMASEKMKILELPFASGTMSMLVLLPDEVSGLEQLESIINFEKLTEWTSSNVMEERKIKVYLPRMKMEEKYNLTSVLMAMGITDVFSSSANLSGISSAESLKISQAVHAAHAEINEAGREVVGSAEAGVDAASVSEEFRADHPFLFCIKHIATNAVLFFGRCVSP

Kd: 300 µM
Substance: human IRE1α-LD-Fc fusion protein (from UniProt O75460 19-443)
